Consider 5 substances from US9289506B2, “Surface binding of nanoparticle based drug delivery to tissue” (Massachusetts Institute of Technology, priority 2013, dated 2016).

The conditions of data set [1]: rabbit knee; cited from earlier work.
Data set [2] can be described thus: Competitive binding of FITC-Avidin and unlabeled Avidin in cartilage (binding isotherm fit). The settings on record: labeled Avidin ≦1 μM, no unlabeled Avidin, 3 day equilibration, 37° C. Details: species or system bovine. The method, then:
To test this hypothesis, competitive binding experiments were performed in which 3 mm diameter cartilage disks were equilibrated for 3 days in 300 μl buffer containing a fixed amount of (fluorescently labeled) FITC-Avidin (1 μM) and graded amounts of unlabeled Avidin (0, 10, 76, 100, and 203 μM). The disks were split into half disks to reduce the time needed for equilibration, which was performed in 96 well plates at 37° C. The uptake ratio, RU, was measured and plotted versus the total bath concentration of Avidin (labeled+unlabeled, FIG. 13), where RU is defined as the total concentration of Avidin inside the cartilage (bound (CB) plus free (CF)) per intra-tissue water weight, normalized to the Avidin concentration in the equilibration bath (CBath):
Labeled and unlabeled Avidin were held to partition into the cartilage identically. At very low concentration of the labeled Avidin (≦1 μM), a high uptake of ˜120 was observed. When unlabeled Avidin was added to the bath, both species (labeled and unlabeled) could compete for the same (constant) number of binding sites available in the tissue (site density NT). […] To model the data of FIG. 13, a first-order, bimolecular, reversible reaction was produced to describe binding of Avidin to a single dominant binding species within cartilage. A theoretical model was adopted, (Garcia et al., Arch Biochem Biophys, 2003) previously used for characterizing the binding of soluble insulin like growth factor-1 (IGF-1) to IGF-binding proteins (IGF-BPs) that are uniformly enmeshed and fixed within cartilage matrix. According to this model, the equilibrium molar concentration of free solute (CF), bound solute (CB), intra-tissue binding site density (NT) and the equilibrium dissociation constant (KEQ) are related by the binding isotherm:
[formula] which is similar in form to a Langmuir adsorption isotherm. […]
[formula] […] Thus, K is determined by both steric hindrance and electrostatic (Donnan) interactions. […]

The conditions of data set [3]: pH 7.
Source text: For the non-covalent conjugation, drug was entrapped inside Avidin structure supra-molecularly, while an ester linker and/or pH sensitive hydrazone linker was utilized for the covalent conjugation.
The nature of data set [4]: Non-equilibrium diffusive transport across cartilage disks (transport cell). It is filed as in vitro ADME, bovine. The settings on record: free FITC added upstream at t=186 min. The protocol:
Real-time measurement of diffusive transport of Avidin and NeutrAvidin through young bovine cartilage disks (with intact superficial zone) was measured using a diffusion chamber consisting of two compartments as described previously (Garcia et al., Arch Biochem Biophys, 2003). Groups of three cartilage disks (6 mm diameter, 400 μm thick) were clamped by O-rings between the two compartments of the diffusion chamber (with total exposed tissue area for transport of 0.28 cm^2/disk), such that solute transport from the upstream compartment into and across the cartilage disks, simultaneously, could occur only from the superficial zone of the cartilage (schematic shown in the inset of FIG. 14). The compartments were treated with casein to prevent non-specific adsorption of solutes to the chamber surfaces. […] Aliquots were taken from each chamber at different time intervals, and fluorescence was measured using a plate reader.
The compartment volume of 25 ml is approximately 1,000× larger than the volume of the cartilage plugs in the configuration of FIG. 14 (inset). […] This configuration thereby focuses on quantitation of steady state solute flux and assessment of effective solute diffusivity within cartilage. […]
[formula] where δ is the thickness of the cartilage disk (˜400 μm). DEFF for Avidin was calculated to be 3.8×10^−7 cm^2/s. […]

Data set [5] in a line: One-way diffusion of solutes into cartilage half disks in transport chamber, confocal microscopy imaging. The format is in vitro ADME, bovine. The following applies: normal cartilage, 4 days.
Source text: Solute Types: Two types of 15 nm diameter (MW˜300 kDa) Quantum Dots (QD) were used: (i) positively charged, and (ii) charge-neutral; same concentration. Transport of FITC (MW˜300 Da, diam˜0.9 nm) and dextrans (Dex) conjugated with FITC (Sigma Aldrich) of different MW (˜8 kDa, diam˜4.3 nm; ˜40 kDa, diam˜10 nm) were also investigated.
Transport Studies: A special PMMA transparent transport chamber was designed to allow diffusion of solutes into only one side (superficial zone) of the cartilage disk. The chamber was treated with Casein to block non-specific binding of solutes to chamber surfaces. The equilibrated cartilage disks were then cut into halves and placed in the middle of the ‘slot chambers’ of the fixture. The chamber side facing the superficial zone was filled with ˜45 μl of solute-PBS solution; the other side was filled with 1×PBS alone. […]
Using a scalpel, a slice (100-200 μm thick) was then cut from the center of each disk (FIG. 1B). […] Appropriate filters were chosen to eliminate auto-fluorescence of cartilage at the settings used for imaging. […] To ensure proper image comparison, solute concentrations were chosen such that the FITC concentration in each solution was identical, thereby giving equal fluorescence intensities.
Data set [6] is described as follows: Equilibrium uptake and desorption of Avidin and NeutrAvidin in cartilage disks. The format is in vitro ADME, bovine. The text has this:
Cartilage disks were harvested from the femoropatellar grooves of 1-2 week old bovine calf knee joints (obtained from Research 87, Hopkinton, Mass.) as described previously (Patwari et al., Arthritis Rheum, 2003). Briefly, cylindrical cartilage disks (3 mm or 6 mm diameter) were cored using a dermal punch and then sliced to obtain the top 1 mm of cartilage with intact superficial zone. Cartilage disks for all treatment groups were matched for depth and location along the joint surface. The disks were then pre-equilibrated in PBS (without Ca^2±/Mg^2±) supplemented with protease inhibitors (Complete Protease Cocktail tablet in 50 mL PBS, Roche Applied Science, IN) in a 37° C., 5% CO2 incubator for 24-48 h.
Equilibrium uptake of Avidin and NeutrAvidin: 3 mm diameter, 1 mm thick cartilage explants were incubated for specific times in 300 μl of known concentration (3 μM) of FITC-Avidin and FITC-NeutrAvidin, supplemented with protease inhibitors at 37° C. in a 96 well plate format. After removal from the absorption baths, the disks were rinsed, gently wiped and then incubated in 1× or 10×PBS supplemented with protease inhibitors for 24 h or longer as specified. At the end of the experiment, the surfaces of each disk were quickly blotted with Kimwipes and the wet weight was measured. The disks were then lyophilized and the dry weight was measured; the water weight was calculated from the tissue wet and dry weights. The fluorescence signal in the absorption and desorption baths was quantified using a plate reader (1400 Wallace Victor, PerkinElmer, MA); the solute content inside the cartilage disk was determined from the difference between the fluorescence reading of the absorption/desorption baths before and after incubation. […] The solute uptake ratio was calculated as the concentration of the FITC-solute in the cartilage (per intra-tissue water weight) normalized to the concentration of FITC-solute in the equilibration bath.

Data set [7] can be described thus: Intra-articular injection of Avidin or Neutravidin in rat knee joints: penetration, uptake and retention in joint tissues.
Procedure: Intra-articular (i.a.) injections of 50 μl of 50 μM Avidin (pI 10.5, 66 kDa, diameter ˜7 nm) or Neutravidin (neutral at pH 7, 60 kDa, diameter ˜7 nm) conjugated with Texas Red (both from Invitrogen, CA) were administered in the right knee joints of healthy 18-20 weeks old Fischer-344 rats (Charles River Laboratories). Following the injection, rat knees were flexed and extended to distribute the injected solute throughout the intra-articular space. Contralateral left knees were used as controls. Avidin injected rats were sacrificed at 4 different time points (6 h, 1 d, 4 d, 7 d) and Neutravidin injected rats were sacrificed after 1 day. The following tissue types were extracted from each joint: articular cartilage removed from the patellar groove, femoral condyle and tibial plateau using a scalpel; medial and lateral menisci; i.a. ligaments (ACL & PCL); patellar and quadriceps tendons; and femoral bone. 6 rats were used per treatment condition for a total of 30 rats. Using a digital caliper (Fisher Scientific), the joint thickness was measured before and after the injection at each time point to check for joint swelling indicating an inflammatory response to the injection.
Tissue samples extracted from the rat joints injected with Avidin-Texas Red (Excitation at 595 nm and emission at 615 nm) and sacrificed at 6 h were imaged using a confocal microscope (OLYMPUS, FluoView FV1000) at 10× magnification by taking Z stacks. Images were taken in X-Y plane, which represents the surface through which Avidin diffused. 3D images were reconstructed using Z stacking (slice thickness˜4.5 μm) and cross-sections in the X-Z plane of these 3D images were taken.
Tissue samples from all treatment conditions were then desorbed in 10×PBS for 48 h in 37° C. incubator to disrupt electrostatic interactions and release Avidin/Neutravidin into the desorption bath. […] At the end of the experiment, tissue samples were removed from the bath, lyophilized and the dry weight was measured. Fluorescence signal from desorption bath was quantified using a plate reader (Synergy HT, BioTek). […] The solute uptake was calculated as the concentration of labeled solute in the tissue samples normalized by tissue dry weight.
The half-life of Avidin was calculated by fitting an exponential curve to the experimental data:
Where, C0 is the initial and C(t) is the final Avidin concentration in tissue after time t and λ is the decay constant.

For the substance albumin, in data set [1], the Half-life is 1.23 to 3.9 h.
On to “Avidin-FITC: FITC-conjugated Avidin [reference compound]”, for which the “uptake ratio RU” value in data set [2] is recorded as approximately 120.
On to “hydrazone linker: Avidin conjugated with dexamethasone through pH sensitive hydrazone linkage via biotinylated PEG (FIG. 21C, FIG. 24)”, for which the stability of linker result in data set [3] is “extremely stable”.
For the substance “fluorescein isothiocyanate [Fluorescein Isothiocyanate (FITC), reference compound]”, in data set [4], the diffusivity is given as 2.8×10^−5 cm^2/s.
On to “NeutrAvidin: electrically neutral globular protein at pH 7, 60 kDa, diameter ~7 nm; neutral counterpart of Avidin [reference compound]”, for which the “penetration into cartilage explant” value in data set [5] is on record as “penetrated approximately half the sample thickness”. For the same substance, the “percent of absorbed solute diffused out of the cartilage” value in data set [6] (1×PBS, within 1 day) is “About 50%”. Moreover, the mean uptake ratio in data set [6] (40% GAG-depleted cartilage (chondroitinase-ABC), 24 h) is given as 0.55; in data set [6] (normal cartilage, 24 h) it was 0.28; in data set [6] (normal cartilage, 4 days), approximately 0.44. In data set [6] (estimated from the data of FIG. 12B), the “partition coefficient KNeutrAvidin” value was 0.44. Moreover, the “presence in rat cartilage and patellar tendon” value in data set [7] (24 h after i.a. injection) was “no Neutravidin present”. For the same substance, the “presence in meniscus, ligaments and quadriceps tendon” value in data set [7] (24 h after i.a. injection, compared to Avidin) was “small but very insignificant amounts”. Besides, in data set [7] (any time point), the “detection in the femoral bone” value is “Neither Avidin nor Neutravidin was detected”. In addition, in data set [7] (within 24 h), the “clearance from joint after i.a. injection” value was “almost complete clearance”.
